As usually defined, the Kd is a measure of binding affinity in units of concentration.

Consider nine molecules from publication PMC10696883, “Discovery of a non-canonical GRHL1 binding site using deep convolutional and recurrent neural networks”.

Sequences and labels used below:
T1: GRHL1 DNA-binding domain (UniProt Q9NZI5 248-485)
T1 sequence: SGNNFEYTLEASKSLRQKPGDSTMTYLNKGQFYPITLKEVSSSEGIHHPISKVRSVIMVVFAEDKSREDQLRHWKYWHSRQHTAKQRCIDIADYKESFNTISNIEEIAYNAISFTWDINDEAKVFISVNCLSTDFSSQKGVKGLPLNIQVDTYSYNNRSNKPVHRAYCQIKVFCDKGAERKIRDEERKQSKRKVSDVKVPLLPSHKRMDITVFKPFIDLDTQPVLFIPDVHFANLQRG

B1: Pos_Ctrl_V1 (dsDNA)
DNA 1: GGGCAAAACCGATTTTGCGG
DNA 2: CCGCAAAATCGGTTTTGCCC
B2: Neg_Ctrl (dsDNA)
DNA 1: GCAAAAAGGAGTCATTGGTG
DNA 2: CACCAATGACTCCTTTTTGC
B3: Pos_Ctrl (dsDNA)
DNA 1: GGGCAAAACCGGTTTTGCGG
DNA 2: CCGCAAAACCGGTTTTGCCC
B4: Pos_Ctrl_V3 (dsDNA)
DNA 1: GGGCAAAACCGTTTTTGCGG
DNA 2: CCGCAAAAACGGTTTTGCCC
B5: Novel_V3 (dsDNA)
DNA 1: AGGTTTTTCCATTTTGGGGC
DNA 2: GCCCCAAAATGGAAAAACCT
B6: Novel_V1 (dsDNA)
DNA 1: AGGTTTTTCCAATTTGGGGC
DNA 2: GCCCCAAATTGGAAAAACCT
B7: Pos_Ctrl_V2 (dsDNA)
DNA 1: GGGCAAAACCGCTTTTGCGG
DNA 2: CCGCAAAAGCGGTTTTGCCC
B8: Novel (dsDNA)
DNA 1: AGGTTTTTCCACTTTGGGGC
DNA 2: GCCCCAAAGTGGAAAAACCT
B9: Novel_V2 (dsDNA)
DNA 1: AGGTTTTTCCAGTTTGGGGC
DNA 2: GCCCCAAACTGGAAAAACCT

For this series, the target named is T1, GRHL1 DNA-binding domain. Description: ITC; ITC: 20 mM HEPES-NaOH pH 7.2, 125 mM NaCl, 2 mM DTT; ~10 µM dsDNA in cell, GRHL1 165 or 200 µM (Methods: 156 or 200 µM) in syringe; triplicates; temperature not stated. The conditions noted are these: protein: recombinant; tags: His6 tag removed by TEV; chain copies: 2; blunt.
Turning to B1, the Kd turned out to be 3400 ± 2200 nM.
Regarding B2, the binding result is listed as “no binding”.
For B3, the Kd worked out at 110 ± 30 nM.
Take B4: the Kd turned out to be 4350 ± 5400 nM.
As for B5, the binding result was “no binding”.
Take B6: the binding result is “no binding”.
As for B7, the Kd is 1540 ± 300 nM.
For the molecule B8, the Kd is 180 ± 80 nM.
The same measure, in the same setting: next, B9: 210 ± 60 nM.
